Measurements: the RNAGym collection of RNA variant scans (doi:10.7554/elife.80360)

B1: HDV Ribozyme (parent)
chain: GGCCGGCAUGGUCCCAGCCUCCUCGCUGGCGCCGGCUGGGCAACAUUCCGAGGGGACCGUCCCCUCGGUAAUGGCGAAUGGGACCCA

Variants of: B1
Assay: self-cleavage, relative activity (ratio to wild type); higher = more cleavage; co-transcriptional

Variant	self-cleavage
GGCCGGCAUGGUCCCAGCCUCCUCGCUGGCGCCGGAUGGGCAACAUUCCGAGGGGACCGUCCCCUCAGUAAUGGCGAAUGGGACCCA	0.126
GGCCGGCAUGGUCCCAGCCUCCUCGCUGGCGCCGGAUGGGCAACAUUCCGAGGGGACCGUCCCCUCUGUAAUGGCGAAUGGGACCCA	0.155
GGCCGGCAUGGUCCCAGCCUCCUCGCUGGCGCCGGAUGGGCAACAUUCCGAGGGGACCGUCCCCUCCGUAAUGGCGAAUGGGACCCA	0.208
GGCCGGCAUGGUCCCAGCCUCCUCGCUGGCGCCGGGUGGGCAACAUUCCGAGGGGACCGUCCCCUCGGUAAUGGCGACUGGGACCCA	0.161
GGCCGGCAUGGUCCCAGCCUCCUCGCUGGCGCCGGAUGGGCAACAUUCCGAGGGGACCGUCCCCUCGGUAAUGUCGAAUGGGACCCA	0.14
GGCCGGCAUGGUCCCAGCCUCCUCGCUGGCGCCGGAUGGGCAACAUUCCGAGGGGACCGUCCCCUCGGUAAUGCCGAAUGGGACCCA	0.0997
GGCCGGCAUGGUCCCAGCCUCCUCGCUGGCGCCGGAUGGGCAACAUUCCGAGGGGACCGUCCCCUCGGUAAUGACGAAUGGGACCCA	0
GGCCGGCAUGGUCCCAGCCUCCUCGCUGGCGCCGGGUGGGCAACAUUCCGAGGGGACCGUCCCCUCGGUAAUGGCGGAUGGGACCCA	0.0791
GGCCGGCAUGGUCCCAGCCUCCUCGCUGGCGCCGGAUGGGCAACAUUCCUAGGGGACCGUCCCCUCGGUAAUGGCGAAUGGGACCCA	0.0923
GGCCGGCAUGGUCCCAGCCUCCUCGCUGGCGCCGGAUGGGCAACAUUCCAAGGGGACCGUCCCCUCGGUAAUGGCGAAUGGGACCCA	0.151
GGCCGGCAUGGUCCCAGCCUCCUCGCUGGCGCCGGAUGGGCAACAUUCCGAGGGGACCGUCCCCUCGGUAAUGGCGAAUGAGACCCA	0.138
GGCCGGCAUGGUCCCAGCCUCCUCGCUGGCGCCGGAUGGGCAACAUUCCGAGGGGACCGUCCCCUCGGUAAUGGCGAAUGCGACCCA	0.102
GGCCGGCAUGGUCCCAGCCUCCUCGCUGGCGCCGGGUGGGCAACAUUCCGAGGGGACCGUCCCCUCGGUAAUGGCGAAUGGGACCCG	0.138
GGCCGGCAUGGUCCCAGCCUCCUCGCUGGCGCCGGGUGGGCAACAUUCCGAGGGGACCGUCCCCUCGGUAAUGGCGAAUGGGACCCU	0.153
GGCCGGCAUGGUCCCAGCCUCCUCGCUGGCGCCGGAUGGGCAACAUUCCGAGGGGACCGUCCCCUCGGCAAUGGCGAAUGGGACCCA	0.0426
GGCCGGCAUGGUCCCAGCCUCCUCGCUGGCGCCGGAUGGGCAACAUUCCGAGGGGACCGUCCCCUCGGAAAUGGCGAAUGGGACCCA	0.0755
GGCCGGCAUGGUCCCAGCCUCCUCGCUGGCGCCGGAUGGGCAACAUUCCGAGGCGACCGUCCCCUCGGUAAUGGCGAAUGGGACCCA	0.241
GGCCGGCAUGGUCCCAGCCUCCUCGCUGGCGCCGGGUGGGCAACAUUCCGAGGGGGCCGUCCCCUCGGUAAUGGCGAAUGGGACCCA	0.0594
GGCCGGCAUGGUCCCAGCCUCCUCGCUGGCGCCGGGUGGGCAACAUUCCGAGGGGUCCGUCCCCUCGGUAAUGGCGAAUGGGACCCA	0.111
GGCCGGCAUGGUCCCAGCCUCCUCGCUGGCGCCGGGUGGGCAACAUUCCGAGGGGCCCGUCCCCUCGGUAAUGGCGAAUGGGACCCA	0.158
GGCCGGCAUGGUCCCAGCCUCCUCGCUGGCGCCGGGUGGGCAACAUUCCGAGGGGACCGUCCCCUCGGUCAUGGCGAAUGGGACCCA	0
GGCCGGCAUGGUCCCAGCCUCCUCGCUGGCGCCGGAUGGCCAACAUUCCGAGGGGACCGUCCCCUCGGUAAUGGCGAAUGGGACCCA	0.102

Variant	self-cleavage
GGCCGGCAUGGUCCCAGCCUCCUCGCUGGCGCCGGAUGGUCAACAUUCCGAGGGGACCGUCCCCUCGGUAAUGGCGAAUGGGACCCA	0.161
GGCCGGCAUGGUCCCAGCCUCCUCGCUGGCGCCGGAUGGGCAACAUUCCGAGGGGACCAUCCCCUCGGUAAUGGCGAAUGGGACCCA	0.164
GGCCGGCAUGGUCCCAGCCUCCUCGCUGGCGCCGGGUGGGCAACAUUCCGAGGGGACCGUCCCCUCGGUAAUGGCGAAUGGGACCCA	0.13
GGCCGGCAUGGUCCCAGCCUCCUCGCUGGCGCCGGAAGGGCAACAUUCCGAGGGGACCGUCCCCUCGGUAAUGGCGAAUGGGACCCA	0.0831
GGCCGGCAUGGUCCCAGCCUCCUCGCUGGCGCCGGACGGGCAACAUUCCGAGGGGACCGUCCCCUCGGUAAUGGCGAAUGGGACCCA	0.489
GGCCGGCAUGGUCCCAGCCUCCUCGCUGGCGCCGGAGGGGCAACAUUCCGAGGGGACCGUCCCCUCGGUAAUGGCGAAUGGGACCCA	0.256
GGCCGGCAUGGUCCCAGCCUCCUCGCUGGCGCCGGAUGGGCAACAUGCCGAGGGGACCGUCCCCUCGGUAAUGGCGAAUGGGACCCA	0.208
GGCCGGCAUGGUCCCAGCCUCCUCGCUGGCGCCGGAUGGGCAACAUCCCGAGGGGACCGUCCCCUCGGUAAUGGCGAAUGGGACCCA	0.0519
GGCCGGCAUGGUCCCAGCCUCCUCGCUGGCGCCGGAUGGGCAACAUUCCGAGGGGACCGUCCCCACGGUAAUGGCGAAUGGGACCCA	0.163
GGCCGGCAUGGUCCCAGCCUCCUCGCUGGCGCCGGAUGGGCAACAUUCCGAGGGGACCGUCCCCCCGGUAAUGGCGAAUGGGACCCA	0.095
GGCCGGCAUGGUCCCAGCCUCCUCGCUGGCGCCGGAUGGGCAACAUUCCGAAGGGACCGUCCCCUCGGUAAUGGCGAAUGGGACCCA	0.158
GGCCGGCAUGGUCCCAGCCUCCUCGCUGGCGCCGGAUGGGCAACAUUCCGAUGGGACCGUCCCCUCGGUAAUGGCGAAUGGGACCCA	0.14
GGCCGGCAUGGUCCCAGCCUCCUCGCUGGCGCCGGAUGGGCAACAUUCCGACGGGACCGUCCCCUCGGUAAUGGCGAAUGGGACCCA	0.138
GGCCGGCAUGGUCCCAGCCUCCUCGCUGGCGCCGGAUGGGCAACAUUCCGAGGGGACCGUCCCCUCGGUAAUUGCGAAUGGGACCCA	0.0583
GGCCGGCAUGGUCCCAGCCUCCUCGCUGGCGCCGGAUGGGCAACAUUCCGAGGGGACCGUCCCCUCGGUAAUAGCGAAUGGGACCCA	0.104
GGCCGGCAUGGUCCCAGCCUCCUCGCUGGCGCCGGAUGGGCAACAAUCCGAGGGGACCGUCCCCUCGGUAAUGGCGAAUGGGACCCA	0.244
GGCCGGCAUGGUCCCAGCCUCCUCGCUGGCGCCGGGUGGGCACCAUUCCGAGGGGACCGUCCCCUCGGUAAUGGCGAAUGGGACCCA	0.166
GGCCGGCAUGGUCCCAGCCUCCUCGCUGGCGCCGGGUGGGCAGCAUUCCGAGGGGACCGUCCCCUCGGUAAUGGCGAAUGGGACCCA	0.0519
GGCCGGCAUGGUCCCAGCCUCCUCGCUGGCGCCGGGUGGGCAACAUUCUGAGGGGACCGUCCCCUCGGUAAUGGCGAAUGGGACCCA	0.0811
GGCCGGCAUGGUCCCAGCCUCCUCGCUGGCGCCGGGUGGGCAACAUUCGGAGGGGACCGUCCCCUCGGUAAUGGCGAAUGGGACCCA	0.0773
GGCCGGCAUGGUCCCAGCCUCCUCGCUGGCGCCGGGUGGGCUACAUUCCGAGGGGACCGUCCCCUCGGUAAUGGCGAAUGGGACCCA	0.113
GGCCGGCAUGGUCCCAGCCUCCUCGCUGGCGCCGGGUGGGCGACAUUCCGAGGGGACCGUCCCCUCGGUAAUGGCGAAUGGGACCCA	0.147

Variant	self-cleavage
GGCCGGCAUGGUCCCAGCCUCCUCGCUGGCGCCGGGUGGGCCACAUUCCGAGGGGACCGUCCCCUCGGUAAUGGCGAAUGGGACCCA	0.0811
GGCCGGCAUGGUCCCAGCCUCCUCGCUGGCGCCGGAUGGGCAACAUUCCGAGAGGACCGUCCCCUCGGUAAUGGCGAAUGGGACCCA	0.218
GGCCGGCAUGGUCCCAGCCUCCUCGCUGGCGCCGGAUGGGCAACAUUCCGAGCGGACCGUCCCCUCGGUAAUGGCGAAUGGGACCCA	0.0277
GGCCGGCAUGGUCCCAGCCUCCUCGCUGGCGCCGGAUGGGCAACAUUCCGAGUGGACCGUCCCCUCGGUAAUGGCGAAUGGGACCCA	0.19
GGCCGGCAUGGUCCCAGCCUCCUCGCUGGCGCCGGAUGGGCAACAUUCCGAGGGGACCGUCCCCUCGGUAAUGGCGAAAGGGACCCA	0.0615
GGCCGGCAUGGUCCCAGCCUCCUCGCUGGCGCCGGAUGGGCAACAUUCCGAGGGGACCGUCCCCUCGGUAAUGGCGAAGGGGACCCA	0.175
GGCCGGCAUGGUCCCAGCCUCCUCGCUGGCGCCGGGUGGGCAAGAUUCCGAGGGGACCGUCCCCUCGGUAAUGGCGAAUGGGACCCA	0
GGCCGGCAUGGUCCCAGCCUCCUCGCUGGCGCCGGGUGGGCAACAUUCCGAGGGGAACGUCCCCUCGGUAAUGGCGAAUGGGACCCA	0.177
GGCCGGCAUGGUCCCAGCCUCCUCGCUGGCGCCGGAUGGGCAACAUUCCGAGGGAACCGUCCCCUCGGUAAUGGCGAAUGGGACCCA	0.188
GGCCGGCAUGGUCCCAGCCUCCUCGCUGGCGCCGGGUGGGCAACAUUCCGUGGGGACCGUCCCCUCGGUAAUGGCGAAUGGGACCCA	0.0519
GGCCGGCAUGGUCCCAGCCUCCUCGCUGGCGCCGGGUGGGCAACAUUCCGCGGGGACCGUCCCCUCGGUAAUGGCGAAUGGGACCCA	0.0665
GGCCGGCAUGGUCCCAGCCUCCUCGCUGGCGCCGGAUGGGCAACAUUCCGAGGGGACCGUCCCCUCGGUAAUGGCGAAUAGGACCCA	0.12
GGCCGGCAUGGUCCCAGCCUCCUCGCUGGCGCCGGGUGGGCAACAUUACGAGGGGACCGUCCCCUCGGUAAUGGCGAAUGGGACCCA	0.272
GGCCGGCAUGGUCCCAGCCUCCUCGCUGGCGCCGGGUGGGCAACAUUUCGAGGGGACCGUCCCCUCGGUAAUGGCGAAUGGGACCCA	0.231
GGCCGGCAUGGUCCCAGCCUCCUCGCUGGCGCCGGGUGGGGAACAUUCCGAGGGGACCGUCCCCUCGGUAAUGGCGAAUGGGACCCA	0.151
GGCCGGCAUGGUCCCAGCCUCCUCGCUGGCGCCGGAUGGGCAACAUUCCGAGGGGACCGUCCCCUCGGUAAUGGCGAAUGGCACCCA	0.112
GGCCGGCAUGGUCCCAGCCUCCUCGCUGGCGCCGGGUGGGCAACAUUCCGAGGGGACCGUCCCCUCGGUAAUGGCGAAUGGGUCCCA	0.113
GGCCGGCAUGGUCCCAGCCUCCUCGCUGGCGCCGGAUGGGCAACAUUCCGAGGGGACCGACCCCUCGGUAAUGGCGAAUGGGACCCA	0.198
GGCCGGCAUGGUCCCAGCCUCCUCGCUGGCGCCGGAUGGGCAACAUUCCGAGGGGACCGCCCCCUCGGUAAUGGCGAAUGGGACCCA	0.166
GGCCGGCAUGGUCCCAGCCUCCUCGCUGGCGCCGGAUGGGCAACAUUCCGAGGGGACCGUCCCCUCGGUAAUGGCUAAUGGGACCCA	0.119
